A short description of the series: soluble on expression in E. coli; label from the status in PepcDB or PDB records.
As to “MSVWLLQMKTNAIITDITKSIVKMDRILVYRHTNPDPDAIGAQFGLVALLKAAYPEKLVVAMAPVPGHLAWIDTTDEQLVTPQATDLVIAVDCANHERLAGELPTGAFVIKIDHHPNHDPYGQLNWVDETYSSCSEMIYELAQAGCFTVTAAVATKLYAGIIGDTVRFSTPETSTRTLKIASALAATDIDIATISHHEMDLTPALSKLYGYVLSEQTIEPSGLAHVVLPQRIFSDLSLEYGDEDALVPLPGNLTTVKVWLFFIETPQGQYRVHFRSKAINVNAVAKAFNGGGHPLASGAFVPDLATVGQVIEQMQAQVLAATAVDLEHHHHHH”, the “soluble on expression in E. coli” value is on record as “not soluble”.
For the sequence “GMDDLSEFVDQVPLLDHHCHFLIDGKVPNRDDRLAQVSTEADKDYPLADTKNRLAYHGFLALAKEFALDANNPLAAMNDPGYATYNHRIFGHFHFKELLIDTGFVPDDPILDLDQTAELVGIPVKAIYRLETHAEDFMLEHDNFAAWWQAFSNDVKQAKAHGFVGFKSIAAYRVGLHLEPVNVIEAAAGFDTWKHSGEKRLTSKPLIDYMLYHVAPFIIAQDMPLQFHVGYGDADTDMYLGNPLLMRDYLKAFTKKGLKVVLLHCYPYHREAGYLASVFPNLYFDISLLDNLGPSGASRVFNEAVELAPYTRILFASDASTYPEMYGLAARQFKQALVAHFNQLPFVDLAQKKAWINAICWQTSAKLYHQERELRV”, the “soluble on expression in E. coli” value is given as “soluble”.
The value for “MGSDKIHHHHHHVSKPLTGIHILVTRPSHQAGGLAGKIRAAGGEPCLFPVLEIQDISDPRPLLELIERLDEFYLAIFVSPNAVNKAMSVICAKRALPSDLKIATVGQGTARTLRRFGVSGVIVPAVRFDSEALLDMAELDRINVAGKRIIIFRGDNGRELLGETLRKRGASVEYAECYRRIRPEAEIGPLLAAWTRGEMNGVTVTSSEGLRNLWEMVGDSGRTWLENTPLFVSHERIAGVARKLGFNRVIVTAAGDDGLVAGLQDYFSGHMG” was “not soluble”.
The value for “EVKDYMSQPVVLRENTTVYDAICTIFLEDVSTLFIINEDNDFVGVCSRKDLLRASMIGADIHTVPISVNMTRMPNVTYLEESELVIYAADRMIEKEIDSIPIVRKKDNQKYEVIGRISKTTIAKLLVALYKE” was “not soluble”; that for “MSQEQVEMIYAKTIEQILEMTGNATANFLPVLGVKSIEMAIGQMEEYLEMLKNLRVDYEKEPNLQSCMSPRLNDSMLIHRNRLARTSKSRLALYRTSPEIARFSRGSPDDIENENLSMSKIRSITEETSILDPTLCMDETTHQRGFLADVSDMNGTVRSRMPSFNFNHISPVPAEKTRRHSVLNVTTDFDVDLSSLCEPSQIEENSGQILFQNVLESALRTPNANNNTILLTDSEVTPVNISNLWNVKLRPGSNRKIDNGIRKEIQRQLACDSQL” was “not soluble”.
With “MGSSHHHHHHSSGLVPRGSMAELSEEALLSVLPTIRVPKAGDRVHKDECAFSFDTPESEGGLYICMNTFLGFGKQYVERHFNKTGQRVYLHLRRTRRPKEEDPATGTGDPPRKKPTRLAIGVEGGFDLSEEKFELDEDVKIVILPDYLEIARDGLGGLPDIVRDRVTSAVEALLSADSASRKQEVQAWDGEVRQVSKHAFSLKQLDNPARIPPCGWKCSKCDMRENLWLNLTDGSILCGRRYFDGSGGNNHAVEHYRETGYPLAVKLGTITPDGADVYSYDEDDMVLDPSLAEHLSHFGIDMLKMQKTDKTMTELEIDMNQRIGEWELIQESGVPLKPLFGPGYTGIRNLGNSCYLNSVVQVLFSIPDFQRKYVDKLEKIFQNAPTDPTQDFSTQVAKLGHGLLSGEYSKPVPESGDGERVPEQKEVQDGIAPRMFKALIGKGHPEFSTNRQQDAQEFFLHLINMVERNCRSSENPNEVFRFLVEEKIKCLATEKVKYTQRVDYIMQLPVPMDAALNKEELLEYEEKKRQAEEEKMALPELVRAQVPFSSCLEAYGAPEQVDDFWSTALQAKSVAVKTTRFASFPDYLVIQIKKFTFGLDWVPKKLDVSIEMPEELDISQLRGTGLQPGEEELPDIAPPLVTPDEPKAPMLDESVIIQLVEMGFPMDACRKAVYYTGNSGAEAAMNWVMSHMDDPDFANPLILPGSSGPGSTSAAADPPPEDCVTTIVSMGFSRDQALKALRATNNSLERAVDWIFSHIDDLDAEAAMDISEGRSAADSISESVPVGPKVRDGPGKYQLFAFISHMGTSTMCGHYVCHIKKEGRWVIYNDQKVCASEKPPKDLGYIYFYQRVAS”, the “soluble on expression in E. coli” value is given as “soluble”.
Consider “MSLSDARLVADLSDVFTDIGVEHAVSGAQIEEFVARMPEVGHSLVAVHRRLRAATEELEGYRSRATAETELPPARPMPFEEVRDFFYDRNNYIHDLDMAAERMFTESGMRTGGLDIQLAELMRDRFGISVVIDDNLPDTAKRRYHPDTKVLRVAHWLMPGQRAFQIATQLALVGQSDLISSIVATDDQLSTEARGVARIGLANYFAGAFLLPYREFHRAAEQLRYDIDLLGRRFGVGFETVCHRLSTLQRPRQRGIPFIFVRTDKAGNISKRQSATAFHFSRVGGSCPLWVVHDAFAQPERIVRQVAQMPDGRSYFWVAKTTAADGLGYLGPHKNFAVGLGCDLAHAHKLVYSTGVVLDDPSTEVPIGAGCKICNRTSCAQRAFPYLGGRVAVDENAGSSLPYSSTEQSVEGHHHHHH”, for which the “soluble on expression in E. coli” value is given as “soluble”.
The value for “MSRYNWNVPILEVLKEAVMVKKLNKIAVVGTPCVINAVYQMMATNNDLVEPFKKAIRLKISLFCFETFDYDKMLKKLKEVEVNPWDIKKMEIDKGKLIVSTIHGNVFNFKIDEMDEYVRKGCKVCRDFTGISSDISVGNVGTPEGYSTVLVRNKWGKGFFDRAVINGYVSVEGEASIDPVISLSKKKMERKDIEFLEHHHHHH” was “soluble”; that for “MQIRFAGIGGQGVVLAGVILGEAAAIEGLRVLQTQDYSSASRGGHSIADVIISNEEIYDVMVTEADVLVALHQLGYETAKSKLKKDGILIIDTDLVKPDREYIGAPFTRIAEETTGLALTVNMVALGYLIGKTQIVKPESVEEAIRRRVPKGTEEINIKAFRKGLEVSMNE” was “not soluble”; that for “MEYELLIREAEPKDAAELVAFLNRVSLETDFTSLDGDGILLTSEEMEIFLNKQASSDNQITLLAFLNGKIAGIVNITADQRKRVRHIGDLFIVIGKRYWNNGLGSLLLEEAIEWAQASGILRRLQLTVQTRNQAAVHLYQKHGFVIEGSQERGAYIEEGKFIDVYLMGKLIG” was “soluble”.
The result for “MIDTPDLETRAAPEDHHALRLWLRMLTCCNLIESEIRSRLRTEFDTTLPRFDLMAQLQRAPKGMKMGELSRHMMVTNGNITGITDQLEKEGLVVRTKVESDRRSSVLKLTPQGKRTFARMARAHESWVTGMLDDLPEASRHAMYKALGELKLQVVAHRALAQRDGAS” reads “not soluble”; that for “MMHIAHSAPNHTVEGLYRAHNVWLTTWLRRRLGCPHSAADLAQDTFVKVLGARDTAQIIEPRAFLTTIAKRVLCNHYRRQDLERAYYQALAELPECAAPSEEERAIILETLVELDQLLDGLPALVKRAFLMSQVDGLSHGQIAAELDISIATVKRHLNKAALRCYFAL”, “not soluble”.
The value for “MSLEKLTYAEVVNVIDGQVLGGRAGLHKTLNKFVIGAMELDAMMRYTAAGNLLIVGNRINAHRQALEAGAAVLVTGGFNTDDSIVQLADELELPILSTSYDTFTVAAMINRAIYDQLIKKEIVLVEDILTPADRTVYLSPKDKLEKWYEKNFETGHGRFPVVDDQMKIHGILTSKDIAGHDRNASIEKVMTKNPVTVIGKTSVASAAQMMVWEGIEVLPVTDGHQKLIGMISRQDVLKALQMIQKEGHHHHHH” was “soluble”; that for “VYNYMVDDTRSQLSIFMDEIAAQLEVDHTGHLSLAAQLSDPRFSRPYSGLYWSASTDSSLERSRSLWDKRIEYKGLDKDAYGARDEKLITLEKALYLPDYDGPIHIIVGIDEEPIKSTLQ” was “not soluble”; that for “MLKNEETEKKLNLNQQRLGTVVAVLKSVNAKKVIDLGCGEGNLLSLLLKDKSFEQITGVDVSYSVLERAKDRLKIDRLPEMQRKRISLFQSSLVYRDKRFSGYDAATVIEVIEHLDENRLQAFEKVLFEFTRPQTVIVSTPNKEYNFHYGNLFEGNLRHRDHRFEWTRKEFQTWAVKVAEKYGYSVRFLQIGEIDDEFGSPTQMGVFTLGAGGHHHHHH” was “soluble”.
Consider “MAKGIPVLEIFGPTIQGEGMVIGQKTMFVRTAGCDYSCSWCDSAFTWDGSAKKDIRWMTAEEIFAELKDIGGDAFSHVTISGGNPALLKQLDAFIELLKENNIRAALETQGTVYQDWFTLIDDLTISPKPPSSKMVTNFQKLDHILTSLQENDRQHAVSLKVVIFNDEDLEFAKTVHKRYPGIPFYLQVGNDDVHTTDDQSLIAHLLGKYEALVDKVAVDAELNLVRVLPQLHTLLWGNKRGV”, for which the “soluble on expression in E. coli” value is given as “not soluble”.
As to “MSPQESRRLSIQRCIQSLVHACQCRNANCSLPSCQKMKRVVQHTKGCKRKTNGGCPVCKQLIALCCYHAKHCQENKCPVPFCLNIKHK”, the “soluble on expression in E. coli” value is recorded as “soluble”.
On to “MPVTLSFGNHQNYTLNESRLAHLLSADKEKAIHMGGWDKVQDHFRAEKKDHALEVLHSIIHGQGRGEPGEMEVNVEDINKIYAFKRLQHLACPAHQDLFTIKMDASQTQFLLMVGDTVISQSNIKDILNISDDAVIESMSREERQLFLQICEVIGSKMTWHPELLQESISTLRKEVTGNAQIKTAVYEMMRPAEAPDHPLVEWQDSLTADEKSMLACINAGNFEPTTQFCKIGYQEVQGEVAFSMMHPCISYLLHSYSPFSEFKPTNSGFLKKLNQDYNDYHAKKMFIDVILEKLYLTHERSLHIGKDGCSRNILLT”, for which the “soluble on expression in E. coli” value is “not soluble”.
Turning to “MSLHWLNRNTRKGSQKNIAAHYDLGNTLFEQFLDPTMMYSAAQFLSNDDTLEQAQLNKLERICQKLALKPTDHLLEIGTGWGSMAIYAAQQYGCRVTTTTLSREQFAYTEQRLIKLGLQDRVTLLLTDYRDLTGEYDKLVSIEMIEAVGHRFLPTYFKQCASLLKSNGMMLLQAITIREQRYAQAKRNVDFIQRYIFPGGALPSVAKMLDIVGSDTDMNLLHMEDFGLHYARTLRLWHDNFKHAHGTLTELGYDDYFLRLWEFYLCYCEGGFLERTIGTAQLLLAKPDALREGHHHHHH”, the “soluble on expression in E. coli” value was “not soluble”.
The result for “MGSDKIHHHHHHMEILSLGEKIKARRKELNMTLKDLAGDRITPGQISLVESGKSNPSMDLLEYLAGALNTSVEYLMESEETQAEKICVYYENTAEAYMLNDELMEAEQYLEKAMYYAENYKISYRKARTLYLYGCINMNKNELGVAQQFFLSSNVLFIKLNHYEDIINTFINLGKITLNLKAYNSSCSYFEQAERVSRDNDIGNDFLIGEIYYYMSLVYFKMNNSNKTIKYCLMAKEKFAELENKKEYARTLLILSKEYSKSGDVDNAIKYSKKALKAFKENDNMFAVADIENELGKLFYEFENIEESFIHLNKAKEIRKKTKGHEFIETLCNICENYIKLKDTENSQKVLNEIKENIDGNNVFDILKYYMLKYRISILNRSLKEAENILLRALQYAENMELEKEAAEFSVIIGKYYIDNGDDVEAAKYLNSGIEKFKKIGVLKDL” reads “not soluble”.
The result for “DVNFILTFPTGYGKTTLSLEIVRMIDLKPTQNFSRLIHVVPTRSLAKDIQNSACERGLGFAVQYSFTPSHIKSPLFLAKFIITTYDSFLLNLYKASIGEPFSYHGHYDLPRFGIYTSLVHFDEFHLMNEGNSWTSLLGAVRHLSKVGVNMILSSATPSKSVEEELIRMMENRKVVRLAVVNEYGESVKNRNCV” reads “not soluble”.
For the sequence “MGHHHHHHSHMRPRRPHQIADLFRPKDQIAYSDTSPFLILSEASLADLNSRLEKKVKATNFRPNIVISGCDVYAEDSWDELLIGDVELKRVMACSRCILTTVDPDTGVMSRKEPLETLKSYRQCDPSERKLYGKSPLFGQYFVLENPGTIKVGDPVYLLGQ”, the “soluble on expression in E. coli” value is recorded as “not soluble”.

Values taken from the DeepSol protein solubility set.
